In assay [1] the target is T1, mouse FcγRIII (mouse, UniProt P08508 31-215).
T1 construct: also called mFcγRIII; mFcgRIII
T1 chain: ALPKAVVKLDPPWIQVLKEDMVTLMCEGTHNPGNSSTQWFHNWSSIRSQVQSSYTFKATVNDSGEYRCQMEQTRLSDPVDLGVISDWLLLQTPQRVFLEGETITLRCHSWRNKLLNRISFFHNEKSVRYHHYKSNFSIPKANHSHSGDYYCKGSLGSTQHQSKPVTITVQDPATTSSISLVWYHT
Description: SPR (Biacore), antibody captured on Protein L, mFcγR as analyte. The method, then: (§1) Each altered antibody was analyzed for its interaction with each Fcγ receptor prepared above using Biacore T100 (GE Healthcare Japan Corp.), Biacore T200 (GE Healthcare Japan Corp.), Biacore A100, or Biacore 4000. The running buffer used was HBS-EP+ (GE Healthcare Japan Corp.). The assay temperature was set to 25° C. The sensor chips used were chips prepared by immobilizing Protein L (ACTIGEN or BioVision) onto Series S Sensor Chip CM5 (GE Healthcare Japan Corp.) or Series S Sensor Chip CM4 (GE Healthcare Japan Corp.) by the amine coupling method.
(§2) In order to calculate the KD value of each altered antibody for FcγR, kinetic analysis was conducted according to the following method: first, the antibody of interest was captured onto any of these chips and allowed to interact with mFcγR diluted with a running buffer. For the obtained sensorgram, the assay results were globally fit into the 1:1 Langmuir binding model using Biacore Evaluation Software to calculate an association rate constant ka (L/mol/s) and a dissociation rate constant kd (1/s). From these values, the dissociation constant KD (mol/L) was calculated.
(Surface plasmon resonance follows binding to a sensor surface in real time, without labels.)

Assay [2] deals with T2, mouse FcγRII (mouse, UniProt P08101 30-210).
T2 construct: also called mFcγRII; mFcgRII
T2 sequence: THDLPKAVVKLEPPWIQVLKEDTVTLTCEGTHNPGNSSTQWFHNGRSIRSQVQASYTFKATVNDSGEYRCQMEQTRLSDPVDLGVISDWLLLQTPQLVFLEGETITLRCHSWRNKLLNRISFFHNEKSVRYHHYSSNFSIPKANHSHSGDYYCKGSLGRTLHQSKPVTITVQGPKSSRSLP
Described as above. The procedure:
as §1, §2

B1: H237-MB638/MRAL-k0 (antibody, mouse IgG1, kappa)
heavy: QVQLQESGPGLVKPSETLSLTCAVSGHSISHDHAWSWVRQPPGEGLEWIGFISYSGITNYNPSLQGRVTISRDNSKNTLYLQMNSLRAEDTAVYYCARSLARTTAMDYWGEGTLVTVSSAKTTPPSVYPLAPGSAAQTNSMVTLGCLVKGYFPEPVTVTWNSGSLSSGVHTFPAVLQSDLYTLSSSVTVPSSTWPSETVTCNVAHPASSTKVDKKIVPRDCGCKPCICIPAEVENVFIFPPKPKDVLTITLTPKVTCVVVDISKDDPEVQFSWFVDDVEVHTAQTQPREEQFNSTFRSVSELPIMHQDWLNGKEFKCRVNSAAFPAPIEKTISKTKGRPKAPQVYTIPPPKEQMAKDKVSLTCMITDFFPEDITVEWQWNGQPAENYKNTQPIMDTDGSYFVYSKLNVQKSNWEAGNTFTCSVLHEGLHNHHTEKSLSHSPGK
light: not shown
notes: mouse IgG1 CH variant; copies: 2 + 2
The Kd is the free concentration of one partner at which half of the binding sites on the other are occupied at equilibrium, for simple one-to-one binding. Turning to B1, in assay [1], the Kd came out at 3.38 µM and the “relative mFcγRIII-binding activity (mIgG1 = 1)” value was 0.1 fold. In addition, in assay [2], the equilibrium dissociation constant (Kd) is 0.28 µM and the “relative mFcγRII-binding activity (mIgG1 = 1)” value worked out at 0.83 fold.

B2: H237-MB687/MRAL-k0 (antibody, mouse IgG1, kappa)
heavy: QVQLQESGPGLVKPSETLSLTCAVSGHSISHDHAWSWVRQPPGEGLEWIGFISYSGITNYNPSLQGRVTISRDNSKNTLYLQMNSLRAEDTAVYYCARSLARTTAMDYWGEGTLVTVSSAKTTPPSVYPLAPGSAAQTNSMVTLGCLVKGYFPEPVTVTWNSGSLSSGVHTFPAVLQSDLYTLSSSVTVPSSTWPSETVTCNVAHPASSTKVDKKIVPRDCGCKPCICEPPEVELVFIFPPKPKDVLTITLTPKVTCVVVDISKDDPEVQFSWFVDDVEVHTAQTQPREEQFNSTFRSVSELPIMHQDWLNGKEFKCRVNSAAFPAPIEKTISKTKGRPKAPQVYTIPPPKEQMAKDKVSLTCMITDFFPEDITVEWQWNGQPAENYKNTQPIMDTDGSYFVYSKLNVQKSNWEAGNTFTCSVLHEGLHNHHTEKSLSHSPGK
light: not shown
notes: as for B1
Take B2: in assay [1], the affinity, expressed as Kd, was 5.32 µM and the “relative mFcγRIII-binding activity (mIgG1 = 1)” value is 0.1 fold. For the same molecule, in assay [2], the Kd was 0.345 µM and the “relative mFcγRII-binding activity (mIgG1 = 1)” value was found to be 0.94 fold.

B3: H237-MB641/MRAL-k0 (antibody, mouse IgG1, kappa)
heavy: QVQLQESGPGLVKPSETLSLTCAVSGHSISHDHAWSWVRQPPGEGLEWIGFISYSGITNYNPSLQGRVTISRDNSKNTLYLQMNSLRAEDTAVYYCARSLARTTAMDYWGEGTLVTVSSAKTTPPSVYPLAPGSAAQTNSMVTLGCLVKGYFPEPVTVTWNSGSLSSGVHTFPAVLQSDLYTLSSSVTVPSSTWPSETVTCNVAHPASSTKVDKKIVPRDCGCKPCICEAYEVEYVFIFPPKPKDVLTITLTPKVTCVVVDISKDDPEVQFSWFVDDVEVHTAQTQPREEQFNSTFRSVSELPIMHQDWLNGKEFKCRVNSAAFPAPIEKTISKTKGRPKAPQVYTIPPPKEQMAKDKVSLTCMITDFFPEDITVEWQWNGQPAENYKNTQPIMDTDGSYFVYSKLNVQKSNWEAGNTFTCSVLHEGLHNHHTEKSLSHSPGK
light: not shown
notes: as for B1
As to B3, in assay [1], the Kd is 2.1 µM and the “relative mFcγRIII-binding activity (mIgG1 = 1)” value came to 0.15 fold. In addition, in assay [2], binding was characterised by a dissociation constant (Kd) of 0.143 µM and the “relative mFcγRII-binding activity (mIgG1 = 1)” value is 1.62 fold.

B4: H237-MB643/MRAL-k0 (antibody, mouse IgG1, kappa)
heavy: QVQLQESGPGLVKPSETLSLTCAVSGHSISHDHAWSWVRQPPGEGLEWIGFISYSGITNYNPSLQGRVTISRDNSKNTLYLQMNSLRAEDTAVYYCARSLARTTAMDYWGEGTLVTVSSAKTTPPSVYPLAPGSAAQTNSMVTLGCLVKGYFPEPVTVTWNSGSLSSGVHTFPAVLQSDLYTLSSSVTVPSSTWPSETVTCNVAHPASSTKVDKKIVPRDCGCKPCICENYEVEYVFIFPPKPKDVLTITLTPKVTCVVVDISKDDPEVQFSWFVDDVEVHTAQTQPREEQFNSTFRSVSELPIMHQDWLNGKEFKCRVNSAAFPAPIEKTISKTKGRPKAPQVYTIPPPKEQMAKDKVSLTCMITDFFPEDITVEWQWNGQPAENYKNTQPIMDTDGSYFVYSKLNVQKSNWEAGNTFTCSVLHEGLHNHHTEKSLSHSPGK
light: not shown
notes: as for B1
On to B4, for which, in assay [1], the equilibrium dissociation constant (Kd) is 2 µM and the “relative mFcγRIII-binding activity (mIgG1 = 1)” value stood at 0.16 fold. For the same molecule, in assay [2], binding was characterised by a dissociation constant (Kd) of 0.126 µM and the “relative mFcγRII-binding activity (mIgG1 = 1)” value worked out at 1.83 fold.

B5: H237-MB702/MRAL-k0 (antibody, mouse IgG1, kappa)
heavy: QVQLQESGPGLVKPSETLSLTCAVSGHSISHDHAWSWVRQPPGEGLEWIGFISYSGITNYNPSLQGRVTISRDNSKNTLYLQMNSLRAEDTAVYYCARSLARTTAMDYWGEGTLVTVSSAKTTPPSVYPLAPGSAAQTNSMVTLGCLVKGYFPEPVTVTWNSGSLSSGVHTFPAVLQSDLYTLSSSVTVPSSTWPSETVTCNVAHPASSTKVDKKIVPRDCGCKPCICTAYEVENVFIFPPKPKDVLTITLTPKVTCVVVDISKDDPEVQFSWFVDDVEVHTAQTQPREEQFNSTFRSVSELPIMHQDWLNGKEFKCRVNSAAFPAPIEKTISKTKGRPKAPQVYTIPPPKEQMAKDKVSLTCMITDFFPEDITVEWQWNGQPAENYKNTQPIMDTDGSYFVYSKLNVQKSNWEAGNTFTCSVLHEGLHNHHTEKSLSHSPGK
light: not shown
notes: as for B1
In the case of B5, in assay [1], binding was characterised by a dissociation constant (Kd) of 3.52 µM and the “relative mFcγRIII-binding activity (mIgG1 = 1)” value is 0.14 fold. Moreover, in assay [2], the Kd is 0.339 µM and the “relative mFcγRII-binding activity (mIgG1 = 1)” value is 0.96 fold.

B6: H237-MB690/MRAL-k0 (antibody, mouse IgG1, kappa)
heavy: QVQLQESGPGLVKPSETLSLTCAVSGHSISHDHAWSWVRQPPGEGLEWIGFISYSGITNYNPSLQGRVTISRDNSKNTLYLQMNSLRAEDTAVYYCARSLARTTAMDYWGEGTLVTVSSAKTTPPSVYPLAPGSAAQTNSMVTLGCLVKGYFPEPVTVTWNSGSLSSGVHTFPAVLQSDLYTLSSSVTVPSSTWPSETVTCNVAHPASSTKVDKKIVPRDCGCKPCICTPAEVEYVFIFPPKPKDVLTITLTPKVTCVVVDISKDDPEVQFSWFVDDVEVHTAQTQPREEQFNSTFRSVSELPIMHQDWLNGKEFKCRVNSAAFPAPIEKTISKTKGRPKAPQVYTIPPPKEQMAKDKVSLTCMITDFFPEDITVEWQWNGQPAENYKNTQPIMDTDGSYFVYSKLNVQKSNWEAGNTFTCSVLHEGLHNHHTEKSLSHSPGK
light: not shown
notes: as for B1
Take B6: in assay [1], the dissociation constant (Kd) turned out to be 2.71 µM and the “relative mFcγRIII-binding activity (mIgG1 = 1)” value came out at 0.19 fold. In addition, in assay [2], the Kd is 0.204 µM and the “relative mFcγRII-binding activity (mIgG1 = 1)” value was determined as 1.6 fold.

B7: H237-MB693/MRAL-k0 (antibody, mouse IgG1, kappa)
heavy: QVQLQESGPGLVKPSETLSLTCAVSGHSISHDHAWSWVRQPPGEGLEWIGFISYSGITNYNPSLQGRVTISRDNSKNTLYLQMNSLRAEDTAVYYCARSLARTTAMDYWGEGTLVTVSSAKTTPPSVYPLAPGSAAQTNSMVTLGCLVKGYFPEPVTVTWNSGSLSSGVHTFPAVLQSDLYTLSSSVTVPSSTWPSETVTCNVAHPASSTKVDKKIVPRDCGCKPCICTDYEVEYVFIFPPKPKDVLTITLTPKVTCVVVDISKDDPEVQFSWFVDDVEVHTAQTQPREEQFNSTFRSVSELPIMHQDWLNGKEFKCRVNSAAFPAPIEKTISKTKGRPKAPQVYTIPPPKEQMAKDKVSLTCMITDFFPEDITVEWQWNGQPAENYKNTQPIMDTDGSYFVYSKLNVQKSNWEAGNTFTCSVLHEGLHNHHTEKSLSHSPGK
light: not shown
notes: as for B1
For B7, in assay [1], the dissociation constant Kd was 5.41 µM and the “relative mFcγRIII-binding activity (mIgG1 = 1)” value came out at 0.09 fold. In assay [2], the Kd amounted to 0.267 µM and the “relative mFcγRII-binding activity (mIgG1 = 1)” value came to 1.22 fold.

B8: H237-MB692/MRAL-k0 (antibody, mouse IgG1, kappa)
heavy: QVQLQESGPGLVKPSETLSLTCAVSGHSISHDHAWSWVRQPPGEGLEWIGFISYSGITNYNPSLQGRVTISRDNSKNTLYLQMNSLRAEDTAVYYCARSLARTTAMDYWGEGTLVTVSSAKTTPPSVYPLAPGSAAQTNSMVTLGCLVKGYFPEPVTVTWNSGSLSSGVHTFPAVLQSDLYTLSSSVTVPSSTWPSETVTCNVAHPASSTKVDKKIVPRDCGCKPCICEPPEVEYVFIFPPKPKDVLTITLTPKVTCVVVDISKDDPEVQFSWFVDDVEVHTAQTQPREEQFNSTFRSVSELPIMHQDWLNGKEFKCRVNSAAFPAPIEKTISKTKGRPKAPQVYTIPPPKEQMAKDKVSLTCMITDFFPEDITVEWQWNGQPAENYKNTQPIMDTDGSYFVYSKLNVQKSNWEAGNTFTCSVLHEGLHNHHTEKSLSHSPGK
light: not shown
notes: as for B1
As to B8, in assay [1], the equilibrium dissociation constant (Kd) was determined as 4.44 µM and the “relative mFcγRIII-binding activity (mIgG1 = 1)” value stood at 0.12 fold. For the same molecule, in assay [2], the dissociation constant (Kd) was 0.186 µM and the “relative mFcγRII-binding activity (mIgG1 = 1)” value was 1.75 fold.

B9: H237-MB647/MRAL-k0 (antibody, mouse IgG1, kappa)
heavy: QVQLQESGPGLVKPSETLSLTCAVSGHSISHDHAWSWVRQPPGEGLEWIGFISYSGITNYNPSLQGRVTISRDNSKNTLYLQMNSLRAEDTAVYYCARSLARTTAMDYWGEGTLVTVSSAKTTPPSVYPLAPGSAAQTNSMVTLGCLVKGYFPEPVTVTWNSGSLSSGVHTFPAVLQSDLYTLSSSVTVPSSTWPSETVTCNVAHPASSTKVDKKIVPRDCGCKPCICIPAEVEYVFIFPPKPKDVLTITLTPKVTCVVVDISKDDPEVQFSWFVDDVEVHTAQTQPREEQFNSTFRSVSELPIMHQDWLNGKEFKCRVNSAAFPAPIEKTISKTKGRPKAPQVYTIPPPKEQMAKDKVSLTCMITDFFPEDITVEWQWNGQPAENYKNTQPIMDTDGSYFVYSKLNVQKSNWEAGNTFTCSVLHEGLHNHHTEKSLSHSPGK
light: not shown
notes: as for B1
In the case of B9, in assay [1], the Kd is 2.8 µM and the “relative mFcγRIII-binding activity (mIgG1 = 1)” value was found to be 0.12 fold. In addition, in assay [2], the dissociation constant (Kd) turned out to be 0.2 µM and the “relative mFcγRII-binding activity (mIgG1 = 1)” value turned out to be 1.16 fold.

For the origin of these results see US20150203577A1 (Chugai, published 2015).
